The supplement of paper PMC10567573

B1: TRIM43 (parent)
chain: FCDMDKSLLCLLCSNSQEHGAHKH

Variants of: B1
Assay: protein stability index of a GFP-peptide fusion (GPS, HEK-293T) (PSI 1-6); higher = more stable
Details: c terminus: a fixed tail appended
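Also: lentivirally expressed fusions sorted by FACS into six bins by GFP to DsRed ratio, PSI derived from sequencing read proportions per bin multiplied by bin number.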

Protein stability index of substitutions, site by site:
G20: A 1.89 | D 2.19 | C 2.59
L9: A 1.99 | H 1.93 | K 2.61 | M 1.92 | P 2.84 | V 2.16 | Y 1.46 | D 2.78 | I 1.91 | C 2.36 | E 2.99 | S 1.88 | T 2.29 | W 1.55 | R 2.08 | F 1.89 | G 1.64 | Q 2.68 | N 2.52
S16: C 1.87 | V 2.23 | G 2.22 | L 2.15 | K 2.04 | E 1.8 | Y 1.79 | H 2 | W 1.75 | T 2.07 | I 1.57 | A 1.8 | D 1.97 | F 2.13 | M 2.3 | R 2.12 | Q 2.13 | N 2.06 | P 2.65
D3: K 2.35 | Q 2.07 | W 1.8 | I 1.94 | G 1.99 | V 2.76 | F 2 | A 2.15 | N 1.75 | H 2.35 | T 1.82 | P 1.67 | S 1.99 | L 1.93 | C 2.26 | E 2.09 | M 2.54 | R 1.99 | Y 2.48
L8: N 2.81 | I 1.96 | Y 2.03 | K 2.86 | P 2.51 | A 2.43 | V 2.72 | H 2.54 | F 2.5 | E 3.8 | W 2.3 | G 2.3 | R 2.71 | Q 2.82 | T 2.32 | S 3.1 | D 3.41 | C 2.64 | M 2.31
L12: N 2.14 | M 2.06 | I 1.78 | A 1.92 | G 1.57 | Y 1.75 | P 1.91 | F 1.47 | E 2.55 | Q 2.65 | K 2.12 | S 2.65 | C 2.56 | R 1.96 | H 2.78 | T 1.95 | D 2.32 | W 3.13 | V 1.93
Q17: E 2.1 | W 1.74 | L 1.63 | I 1.78 | H 1.76 | P 1.7 | M 1.58 | A 1.85 | V 1.67 | N 1.51 | K 2.13 | T 1.61 | F 2.05 | G 1.84 | D 1.78 | S 1.55 | R 1.6 | C 2.22 | Y 2.19
D5: L 2.69 | C 2.02 | K 2.22 | M 2.97 | G 2.33 | E 1.92 | Y 2.18 | A 2.67 | I 3.01 | W 3.29 | Q 1.98 | V 2.74 | F 3.03 | R 1.74 | P 2.29 | T 2.34 | N 1.8 | S 1.79 | H 3.33
H19: T 1.83 | W 1.51 | E 1.98 | N 1.75 | Y 1.91 | A 1.91 | G 2.18 | D 2.38 | L 1.42 | R 2.03 | M 2.03 | Q 1.41 | K 2.11 | F 1.67 | P 2.05 | I 1.87 | V 1.59 | C 2.03 | S 2.01
E18: V 2.28 | Y 1.71 | L 1.7 | M 1.83 | R 1.86 | I 1.4 | N 1.87 | K 1.86 | D 2.11 | W 1.98 | G 1.78 | C 2.3 | S 1.63 | P 1.83 | A 2.12 | Q 1.93 | F 1.75 | H 1.81 | T 1.68
M4: P 2 | R 2.16 | W 2.13 | S 2.19 | N 1.85 | C 3.14 | G 1.96 | V 2.11 | E 2.58 | I 1.96 | T 1.64 | F 2.04 | D 2.86 | Y 2.07 | A 2.07 | L 1.98 | Q 1.88 | K 1.7 | H 3.6
K6: Y 2.17 | N 2.32 | E 2.29 | G 2.18 | Q 2.38 | I 2.04 | P 2.12 | F 2.24 | A 2.06 | H 2.09 | M 2.21 | S 2.17 | V 1.74 | R 1.56 | L 1.97 | D 2.96 | W 2.04 | T 1.94 | C 1.95
S14: P 1.98 | K 2.12 | V 1.71 | H 1.87 | Q 2.09 | Y 1.82 | I 1.52 | R 2.2 | N 2.01 | F 1.45 | L 2.08 | A 1.87 | T 2.02 | E 2.02 | W 2.06 | D 1.72 | G 2.26 | C 1.88 | M 1.85
L11: G 1.93 | R 2.19 | Y 2.26 | T 2.51 | D 2.75 | C 1.44 | P 1.83 | E 2.93 | V 1.63 | W 2.79 | I 2.25 | N 2.07 | M 1.86 | A 2.21 | H 2.04 | S 1.8 | F 2.04 | K 2.2 | Q 2.36
C2: T 1.84 | V 1.86 | Y 2.9 | W 2.38 | R 2.84 | P 2.76 | S 2.51 | Q 2.43
C13: I 2.04 | F 1.89 | G 1.9 | P 2.13 | D 1.99 | H 1.88 | W 2.72 | Q 2.53 | R 2.13 | M 2.19 | S 1.61 | Y 1.68 | E 2.13 | N 1.87 | V 2.3 | T 1.83 | L 2.07 | K 2.15 | A 1.15
S7: E 2.12 | H 2.22 | W 1.79 | V 1.79 | Q 2.54 | D 2.48 | R 1.65 | A 1.77 | I 1.84 | L 1.93 | N 2.22 | Y 2.1 | P 2.62 | T 2.04 | G 1.92 | C 2.26 | K 1.92 | M 2.23 | F 2.72
N15: C 1.77 | E 1.92 | I 2.49 | Q 1.87 | A 1.6 | R 2.1 | P 1.34 | K 2.26 | V 1.89 | S 2.07 | W 1.89 | D 2.26 | T 1.77 | H 1.55 | M 1.66 | L 2.4 | Y 2.09 | G 1.94 | F 2.01
C10: F 2.58 | E 2.23 | W 2.57 | I 2.06 | L 2.14 | N 1.83 | T 1.72 | D 2.18 | A 2.23 | P 2.3 | V 1.86 | K 2.04 | Y 2.65 | G 1.64 | R 1.7 | S 1.59 | H 2.03 | M 2.15 | Q 1.86
